Laboratory results reported in patent publication US20230002480A1.

Key:
Assay in all cases: cell-based or functional assay
[1] = target: HIV-1 Env of pseudovirus THRO4156.18 (HIV-1)
[2] = target: HIV-1 Env of pseudovirus ZM214M.PL15 (HIV-1)
[3] = target: HIV-1 Env of pseudovirus 62357_14_D3_4589 (HIV-1)
[4] = target: HIV-1 Env of pseudovirus T251-18 (HIV-1)
[5] = target: HIV-1 Env of pseudovirus 191955_A11 (HIV-1)
[6] = target: HIV-1 Env of pseudovirus 1394C9G1(Rev-) (HIV-1)
[7] = target: HIV-1 Env of pseudovirus CNE5 (HIV-1)
[8] = target: HIV-1 Env of pseudovirus T257-31 (HIV-1)
[9] = target: HIV-1 Env of pseudovirus CNE30 (HIV-1)
[10] = target: HIV-1 Env of pseudovirus C3347.c11 (HIV-1)
[11] = target: HIV-1 Env of pseudovirus Ce2010_F5 (HIV-1)
[12] = target: HIV-1 Env of pseudovirus 6540.v4.c1 (HIV-1)
[13] = target: HIV-1 Env of pseudovirus CNE20 (HIV-1)
[14] = target: HIV-1 Env of pseudovirus 231966.c02 (HIV-1)
[15] = target: HIV-1 Env of pseudovirus C1080.c03 (HIV-1)
[16] = target: HIV-1 Env of pseudovirus SC422661.8 (HIV-1)
[17] = target: HIV-1 Env of pseudovirus BJOX010000.06.2 (HIV-1)
[18] = target: HIV-1 Env of pseudovirus P0402_c2_11 (HIV-1)
[19] = target: HIV-1 Env of pseudovirus Du172.17 (HIV-1)
[20] = target: HIV-1 Env of pseudovirus 6952.v1.c20 (HIV-1)
[21] = target: HIV-1 Env of pseudovirus Du156.12 (HIV-1)
[22] = target: HIV-1 Env of pseudovirus CAP45.2.00.G3 (HIV-1)
[23] = target: HIV-1 Env of pseudovirus Q842.d12 (HIV-1)
[24] = target: HIV-1 Env of pseudovirus 246F C1G (HIV-1)
[25] = target: HIV-1 Env of pseudovirus Ce0682_E4 (HIV-1)
[26] = target: HIV-1 Env of pseudovirus 1054_07_TC4_1499 (HIV-1)
[27] = target: HIV-1 Env of pseudovirus CNE58 (HIV-1)
[28] = target: HIV-1 Env of pseudovirus R3265.c06 (HIV-1)
[29] = target: HIV-1 Env of pseudovirus 0260.v5.c36 (HIV-1)
[30] = target: HIV-1 Env of pseudovirus X1632_S2_B10 (HIV-1)
[31] = target: HIV-1 Env of pseudovirus BJOX025000.01.1 (HIV-1)
[32] = target: HIV-1 Env of pseudovirus 6244_13_B5_4576 (HIV-1)
[33] = target: HIV-1 Env of pseudovirus Du422.1 (HIV-1)
[34] = target: HIV-1 Env of pseudovirus X1193_c1 (HIV-1)
[35] = target: HIV-1 Env of pseudovirus C4118.c09 (HIV-1)
[36] = target: HIV-1 Env of pseudovirus ZM109F.PB4 (HIV-1)
[37] = target: HIV-1 Env of pseudovirus 6480.v4.c25 (HIV-1)

## PGT151 (antibody)
[1]
  IC50: > 50 µg/mL
  IC80: > 50 µg/mL
[2]
  IC50: 0.008 µg/mL
  IC80: 0.045 µg/mL
[3]
  IC50: 0.004 µg/mL
  IC80: 0.023 µg/mL
[4]
  IC50, titer in TZM.bl cells: 0.327 µg/mL
  IC80, titer in TZM.bl cells: > 50 µg/mL
[5]
  IC50: 0.004 µg/mL
  IC80: 0.014 µg/mL
[6]
  IC50: 0.022 µg/mL
  IC80: 0.733 µg/mL
[7]
  IC50, titer in TZM.bl cells: > 50 µg/mL
  IC80, titer in TZM.bl cells: > 50 µg/mL
[8]
  IC50: 0.003 µg/mL
  IC80: 0.01 µg/mL
[9]
  IC50: > 50 µg/mL
  IC80: > 50 µg/mL
[10]
  IC50, titer in TZM.bl cells: > 50 µg/mL
  IC80, titer in TZM.bl cells: > 50 µg/mL
[11]
  IC50: > 50 µg/mL
  IC80: > 50 µg/mL
[12]
  IC50, titer in TZM.bl cells: 0.006 µg/mL
  IC80, titer in TZM.bl cells: 0.03 µg/mL
[13]
  IC50: > 50 µg/mL
  IC80: > 50 µg/mL
[14]
  IC50, titer in TZM.bl cells: 0.025 µg/mL
  IC80, titer in TZM.bl cells: 0.183 µg/mL
[15]
  IC50, titer in TZM.bl cells: > 50 µg/mL
  IC80, titer in TZM.bl cells: > 50 µg/mL
[16]
  IC50: 0.005 µg/mL
  IC80: 0.028 µg/mL
[17]
  IC50, titer in TZM.bl cells: > 50 µg/mL
  IC80, titer in TZM.bl cells: > 50 µg/mL
[18]
  IC50, titer in TZM.bl cells: < 0.001 µg/mL
  IC80, titer in TZM.bl cells: 0.004 µg/mL
[19]
  IC50: 0.003 µg/mL
  IC80: 0.013 µg/mL
[20]
  IC50, titer in TZM.bl cells: 49.2 µg/mL
  IC80, titer in TZM.bl cells: > 50 µg/mL
[21]
  IC50: 0.005 µg/mL
  IC80: 0.023 µg/mL
[22]
  IC50: 0.007 µg/mL
  IC80: > 50 µg/mL
[23]
  IC50: 0.001 µg/mL
  IC80: 0.014 µg/mL
[24]
  IC50: > 50 µg/mL
  IC80: > 50 µg/mL
[25]
  IC50: > 50 µg/mL
  IC80: > 50 µg/mL
[26]
  IC50: 0.008 µg/mL
  IC80: 0.032 µg/mL
[27]
  IC50: 0.004 µg/mL
  IC80: 0.016 µg/mL
[28]
  IC50, titer in TZM.bl cells: > 50 µg/mL
  IC80, titer in TZM.bl cells: > 50 µg/mL
[29]
  IC50: 0.427 µg/mL
  IC80: > 50 µg/mL
[30]
  IC50, titer in TZM.bl cells: 0.061 µg/mL
  IC80, titer in TZM.bl cells: > 50 µg/mL
[31]
  IC50, titer in TZM.bl cells: > 50 µg/mL
  IC80, titer in TZM.bl cells: > 50 µg/mL
[32]
  IC50: > 50 µg/mL
  IC80: > 50 µg/mL
[33]
  IC50: 4.6 µg/mL
  IC80: > 50 µg/mL
[34]
  IC50, titer in TZM.bl cells: 0.004 µg/mL
  IC80, titer in TZM.bl cells: 0.027 µg/mL
[35]
  IC50, titer in TZM.bl cells: > 50 µg/mL
  IC80, titer in TZM.bl cells: > 50 µg/mL
[36]
  IC50: 0.609 µg/mL
  IC80: > 50 µg/mL

## VRC01 (antibody)
[1]
  IC80, titer in TZM.bl cells: 23 µg/mL
[2]
  IC50, titer in TZM.bl cells: 0.44 µg/mL
  IC80, titer in TZM.bl cells: 2.6 µg/mL
[3]
  IC50, titer in TZM.bl cells: 0.96 µg/mL
  IC80, titer in TZM.bl cells: 4.68 µg/mL
[4]
  IC80, titer in TZM.bl cells: 11.2 µg/mL
[7]
  IC50, titer in TZM.bl cells: 0.37 µg/mL
  IC80, titer in TZM.bl cells: 1.1 µg/mL
[8]
  IC50, titer in TZM.bl cells: 2.8 µg/mL
  IC80, titer in TZM.bl cells: 8.66 µg/mL
[10]
  IC50, titer in TZM.bl cells: 0.17 µg/mL
  IC80, titer in TZM.bl cells: 0.58 µg/mL
[11]
  IC50, titer in TZM.bl cells: 0.32 µg/mL
  IC80, titer in TZM.bl cells: 1.07 µg/mL
[12]
  IC50, titer in TZM.bl cells: > 50 µg/mL
  IC80, titer in TZM.bl cells: > 50 µg/mL
[15]
  IC50, titer in TZM.bl cells: 3.4 µg/mL
  IC80, titer in TZM.bl cells: 14.4 µg/mL
[16]
  IC50, titer in TZM.bl cells: 0.08 µg/mL
  IC80, titer in TZM.bl cells: 0.265 µg/mL
[18]
  IC50, titer in TZM.bl cells: 0.21 µg/mL
  IC80, titer in TZM.bl cells: 0.59 µg/mL
[19]
  IC50, titer in TZM.bl cells: > 50 µg/mL
  IC80, titer in TZM.bl cells: > 50 µg/mL
[20]
  IC50, titer in TZM.bl cells: 0.04 µg/mL
  IC80, titer in TZM.bl cells: 0.12 µg/mL
[21]
  IC50, titer in TZM.bl cells: 0.09 µg/mL
  IC80, titer in TZM.bl cells: 0.193 µg/mL
[22]
  IC80, titer in TZM.bl cells: > 50 µg/mL
[23]
  IC50, titer in TZM.bl cells: 0.03 µg/mL
  IC80, titer in TZM.bl cells: 0.096 µg/mL
[24]
  IC50, titer in TZM.bl cells: > 10 µg/mL
  IC80, titer in TZM.bl cells: > 10 µg/mL
[25]
  IC50, titer in TZM.bl cells: 0.08 µg/mL
  IC80, titer in TZM.bl cells: 0.48 µg/mL
[26]
  IC50, titer in TZM.bl cells: 0.71 µg/mL
  IC80, titer in TZM.bl cells: 2.85 µg/mL
[28]
  IC50, titer in TZM.bl cells: 0.45 µg/mL
  IC80, titer in TZM.bl cells: 1.88 µg/mL
[30]
  IC50, titer in TZM.bl cells: 0.12 µg/mL
  IC80, titer in TZM.bl cells: 0.74 µg/mL
[32]
  IC50, titer in TZM.bl cells: 0.21 µg/mL
  IC80, titer in TZM.bl cells: 0.53 µg/mL
[33]
  IC50, titer in TZM.bl cells: > 50 µg/mL
  IC80, titer in TZM.bl cells: > 50 µg/mL
[34]
  IC50, titer in TZM.bl cells: 0.11 µg/mL
  IC80, titer in TZM.bl cells: 0.32 µg/mL
[37]
  IC50, titer in TZM.bl cells: 0.04 µg/mL
  IC80, titer in TZM.bl cells: 0.09 µg/mL
[36]
  IC50, titer in TZM.bl cells: 0.13 µg/mL
  IC80, titer in TZM.bl cells: 0.75 µg/mL
